Measured values reported in patent US20160017055A1 (Takeda / Millennium, published 2016).

Molecular target: T1, plasma kallikrein Mutant 2 (catalytic domain; R551A, Q553A, Y555A, T558A, R560A) (human, UniProt P03952 391-638)
T1 construct: Mutations in a subsite of the active site (printed 'S subsite')
Assay: Ki,app; inhibition of PKal catalytic domain activity, Morrison fit
Protocol: Briefly, PKal and a Fab at various concentrations are incubated together for 1 hour at 30° C. A substrate peptide (cleavable by PKal) is then added to this PKal-Fab mixture. The rate of substrate peptide cleavage/proteolysis is then measured, and plotted against the concentrations of the Fab. This plot is then fit to the Morrison equation, which calculates the K_{i,app} value.
The inhibitory activity of X₁₁₅-F02 against the wild-type PKal and the mutants were carried out using the method described in Example 2 above and the K_{i,app} values were determined.

T1 sequence (P03952 391-638 C503S/R551A/Q553A/Y555A/T558A/R560A limits assumed): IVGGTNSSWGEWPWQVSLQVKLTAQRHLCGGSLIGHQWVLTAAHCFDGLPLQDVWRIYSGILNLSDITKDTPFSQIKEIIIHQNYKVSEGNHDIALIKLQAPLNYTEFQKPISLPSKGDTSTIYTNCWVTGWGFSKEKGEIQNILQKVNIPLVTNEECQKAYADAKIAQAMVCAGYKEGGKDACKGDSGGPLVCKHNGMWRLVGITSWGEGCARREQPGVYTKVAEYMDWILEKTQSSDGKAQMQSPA

fold reduction of inhibitory potency (Ki,app) against wild-type PKal: ~65 fold
B1: X115-F02 (antibody, human IgG1, kappa, V domains shown)
VH: EVQLLESGGGLVQPGGSLRLSCAASGFTFSHYIMMWVRQAPGKGLEWVSGIYSSGGITVYADSVKGRFTISRDNSKNTLYLQMNSLRAEDTAVYYCAYRRIGVPRRDEFDIWGQGTMVTVSS
VL: DIQMTQSPSTLSASVGDRVTITCRASQSISSWLAWYQQKPGKAPKLLIYKASTLESGVPSRFSGSGSGTEFTLTISSLQPDDFATYYCQQYNTYWTFGQGTKVEIKR
